Reference: the RNAGym collection of RNA variant scans (doi:10.1073/pnas.2313332121)

B1: TPR t1 (parent)
chain: GACCAAUCUGCCCUCAGAGCUCGAGAACAUCUUCGGAUGCAGAGGAGGCAGGCUUCGGUGGCGCGAUAGCGCCAACGUCCUCAACCUCCAAUGCAUCCCACCACAUGAUGAUGCCUGAAGAGCCUUGGUUUUUUG

Variants of: B1
Assay: polymerase ribozyme fitness, log enrichment relative to wild type (log ratio); higher = more active; in vitro selection for triplet polymerase activity
In short: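 Mutant libraries for each subunit of a heterodimeric triplet polymerase ribozyme were made by PCR and then transcribed. Each library underwent one round of in vitro selection in triplicate: annealing with a biotinylated primer, the partner subunit and triplets, frozen incubation at −7 °C, gel excision of extended constructs, streptavidin-bead capture and RT-PCR. Input and output libraries were Illumina-sequenced, and only genotypes with ≥10 input reads and ≥1 read per output were kept. Fitness is the logarithm, base 2, of genotype enrichment over wild-type enrichment, computed from inverse-variance-weighted replicate averages.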

Going from C8G A18U U21A C73U G93A to C8G U32A A43U G47U G52C C86A U96A, the “polymerase ribozyme fitness (log ratio)” value falls from -3.79 to -6.26.

Going from C8A A74G to C8A A74U, the “polymerase ribozyme fitness (log ratio)” value falls from 0.152 to -0.0501.

First: C8G C20U U32G C56G G113A U125G
Second: C8G C12G U55G G61U
The “polymerase ribozyme fitness (log ratio)” value of the first is lower: -3.85 for the first, 0.571 for the second.

Going from C8A C20U G60A C98U to U7G G42A G63C U81A U109A U130C, the “polymerase ribozyme fitness (log ratio)” value falls from -0.889 to -6.25.

Going from C8A C13G G17C C82U to C8A G61U G117U A119U C123U, the “polymerase ribozyme fitness (log ratio)” value rises from -4 to -0.671.

Going from C8U A26U to C8G C13U A16U G71A, the “polymerase ribozyme fitness (log ratio)” value rises from -2.13 to -0.033.

Compared with C8A U33A G42U U112A C123A, C8G A43C A50U C115U G127U is higher in “polymerase ribozyme fitness (log ratio)” value: -6.39 for the first, -4.94 for the second.

First: C8A C12U C13G G69A C98U
Second: U7G C8U C53A U59C C80U
The “polymerase ribozyme fitness (log ratio)” value of the first is higher: -4.08 for the first, -4.87 for the second.

Compared with C8G A18C G39C U133G, C8A C11A G51U is lower in “polymerase ribozyme fitness (log ratio)” value: -2.2 for the first, -2.89 for the second.

Compared with U7G U33G, C8G G48U G58C G60U U125G is higher in “polymerase ribozyme fitness (log ratio)” value: -5.33 for the first, -0.353 for the second.

Going from C8G A50G G63A U112A G122A to U7G C31U C62U A100C U106A G113A, the “polymerase ribozyme fitness (log ratio)” value falls from -1.09 to -4.43.

Compared with C8G A29U G120U, C8A G71A is lower in “polymerase ribozyme fitness (log ratio)” value: 0.42 for the first, 0.22 for the second.

First: C8G U126C
Second: C8G U14C G39C A100C
The “polymerase ribozyme fitness (log ratio)” value of the first is higher: -0.307 for the first, -0.867 for the second.

Compared with C8A U9G C85G C89A U126G G127C, C8G C34A U55A C70G C104G G110A is lower in “polymerase ribozyme fitness (log ratio)” value: -2.22 for the first, -7.2 for the second.

Going from C8G U14G A43C G47U C82G U133A to U7G C22U C101A C114A A118U A119U, the “polymerase ribozyme fitness (log ratio)” value falls from -3.36 to -5.29.

Going from C8A G47U U78A A83C C98G U112A to C8A G69C G110C, the “polymerase ribozyme fitness (log ratio)” value rises from -7.02 to -4.93.

Compared with C8G C64U, C8A G110A is lower in “polymerase ribozyme fitness (log ratio)” value: 0.927 for the first, -0.267 for the second.

Compared with C8A G110C, C8G A100U U106A U116A is higher in “polymerase ribozyme fitness (log ratio)” value: -3.59 for the first, -0.749 for the second.

First: U7G C101A
Second: C8G U9G C70A
The “polymerase ribozyme fitness (log ratio)” value of the first is higher: -0.172 for the first, -1.19 for the second.

First: C8A G48C
Second: C8A G10U U14G C56A C64U U78A C86A C101U
The “polymerase ribozyme fitness (log ratio)” value of the first is higher: -0.457 for the first, -2.72 for the second.

First: C8G C79G G117U
Second: C8U A18U C20A A95U G117A
The “polymerase ribozyme fitness (log ratio)” value of the first is higher: -1.37 for the first, -3.83 for the second.

First: C8G C62U C86G G117A A119U
Second: C8A U14A C101G
The “polymerase ribozyme fitness (log ratio)” value of the first is higher: -0.52 for the first, -1.85 for the second.

C8A G35A C89U A95U U106A and C8G C80A A90U G128C U129G are within 0.2 log units of each other in “polymerase ribozyme fitness (log ratio)” value: -4.65 for the first, -4.56 for the second.

First: C8G C20A A84C C124U
Second: C8A C114U U126C
The “polymerase ribozyme fitness (log ratio)” value of the first is higher: -0.801 for the first, -2.4 for the second.

Compared with C8G G63C, C8A C89A G122U is higher in “polymerase ribozyme fitness (log ratio)” value: -1.11 for the first, -0.485 for the second.

Going from C8A U9G U87A to C8A A16C C40U C72A U92G C123U U130A, the “polymerase ribozyme fitness (log ratio)” value falls from 0.00649 to -3.93.

Going from U7G C13A A37C G52A G69C to C8G G36U U54C A91C C124A, the “polymerase ribozyme fitness (log ratio)” value rises from -1.85 to -0.94.

First: C8A A27C U33G G36C G42U G110C G113C
Second: C8G C11G C56A C62G C85U
The “polymerase ribozyme fitness (log ratio)” value of the first is lower: -6.47 for the first, -4.61 for the second.

First: C8G A18U G45A C79U A100U A103C C114U
Second: C8A C12G G39C G63C U78G G117U
The “polymerase ribozyme fitness (log ratio)” value of the first is lower: -4.29 for the first, -2.3 for the second.

Going from C8G C20A C72U G77A to C8G A46G G107A, the “polymerase ribozyme fitness (log ratio)” value falls from -1.87 to -4.69.

Compared with C8A G69C, C8A G113C is lower in “polymerase ribozyme fitness (log ratio)” value: -1.13 for the first, -1.59 for the second.

Going from C8A C22U C53G G61A U106A A118G to C8A C64G C72U A121G, the “polymerase ribozyme fitness (log ratio)” value falls from -4.47 to -6.31.

Going from C8A C49A G71U C86A G122A to C8G C88A, the “polymerase ribozyme fitness (log ratio)” value rises from -0.666 to -0.193.

Going from C8A U38A G42U G45A to C8G C11G U96A, the “polymerase ribozyme fitness (log ratio)” value rises from -2.61 to -0.26.

Compared with U7G C12U C15A C22G C62U C80U C86U U96C G113C, C8G A37G G71A is higher in “polymerase ribozyme fitness (log ratio)” value: -6.05 for the first, 0.737 for the second.

First: C8G C73A
Second: C8G C73G
The “polymerase ribozyme fitness (log ratio)” value of the first is higher: 1.91 for the first, 0.0346 for the second.

First: U7G C11U A18C G45U C53A
Second: C8A C40G A84U
The “polymerase ribozyme fitness (log ratio)” value of the first is lower: -2.72 for the first, -0.858 for the second.

First: C8A C53G
Second: C8A A50U G52A
The “polymerase ribozyme fitness (log ratio)” value of the first is higher: -0.744 for the first, -2.23 for the second.

Going from C8G C115A U130G to C8A C64U, the “polymerase ribozyme fitness (log ratio)” value falls from 1.67 to 0.575.

First: C8G G61A U87G C123A
Second: C8G G44C C49A C123G
The “polymerase ribozyme fitness (log ratio)” value of the first is higher: 1.64 for the first, 0.185 for the second.

Compared with C8G A24G C124U U126G, C8G G48U G93U U112A C124A is higher in “polymerase ribozyme fitness (log ratio)” value: -2.55 for the first, -0.874 for the second.

In the case of U7G C114U G127A, the “polymerase ribozyme fitness (log ratio)” value is reported as -1.17.
